Measurements as given in patent US20150203577A1 (Chugai, published 2015).

T1: mouse FcγRIII (mouse, UniProt P08508 31-215)
T1 construct: Extracellular domain with C-terminal His tag, made in FreeStyle 293 cells; also called mFcγRIII; mFcgRIII
T1 chain: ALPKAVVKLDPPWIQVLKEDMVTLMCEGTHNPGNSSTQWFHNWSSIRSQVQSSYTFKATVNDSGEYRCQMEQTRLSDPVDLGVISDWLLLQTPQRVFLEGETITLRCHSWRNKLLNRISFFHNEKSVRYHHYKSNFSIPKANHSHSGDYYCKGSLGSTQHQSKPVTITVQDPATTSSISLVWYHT

T2: mouse FcγRII (mouse, UniProt P08101 30-210)
T2 construct: Extracellular domain with C-terminal His tag, made in FreeStyle 293 cells; also called mFcγRII; mFcgRII
T2 sequence: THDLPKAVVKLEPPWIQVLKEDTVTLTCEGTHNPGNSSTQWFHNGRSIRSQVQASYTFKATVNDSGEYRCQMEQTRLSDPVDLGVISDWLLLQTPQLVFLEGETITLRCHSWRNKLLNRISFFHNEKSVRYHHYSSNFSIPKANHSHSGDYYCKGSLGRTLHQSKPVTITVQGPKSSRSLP


Assays:
mouse FcγRIII [1] = target: T1, mouse FcγRIII; test: SPR (Biacore), KD of H237-mIgG1/MRAL-k0 (same run) / KD of variant
Experimental: (§1) Each altered antibody was analyzed for its interaction with each Fcγ receptor prepared above using Biacore T100 (GE Healthcare Japan Corp.), Biacore T200 (GE Healthcare Japan Corp.), Biacore A100, or Biacore 4000. The running buffer used was HBS-EP+ (GE Healthcare Japan Corp.). The assay temperature was set to 25° C. The sensor chips used were chips prepared by immobilizing Protein L (ACTIGEN or BioVision) onto Series S Sensor Chip CM5 (GE Healthcare Japan Corp.) or Series S Sensor Chip CM4 (GE Healthcare Japan Corp.) by the amine coupling method.
(§2) In order to calculate the KD value of each altered antibody for FcγR, kinetic analysis was conducted according to the following method: first, the antibody of interest was captured onto any of these chips and allowed to interact with mFcγR diluted with a running buffer. For the obtained sensorgram, the assay results were globally fit into the 1:1 Langmuir binding model using Biacore Evaluation Software to calculate an association rate constant ka (L/mol/s) and a dissociation rate constant kd (1/s). From these values, the dissociation constant KD (mol/L) was calculated.

mouse FcγRII [2] = target: T2, mouse FcγRII; test: as above
Experimental: as §1, §2

mouse FcγRIII [3] = target: T1, mouse FcγRIII; test: SPR (Biacore), antibody captured on Protein L
mouse FcγRII [4] = target: T2, mouse FcγRII; test: SPR (Biacore), antibody captured on Protein L

Row | relative mFcγRIII-binding activity (mIgG1 = 1) (mouse FcγRIII [1]) [fold] | relative mFcγRII-binding activity (mIgG1 = 1) (mouse FcγRII [2]) [fold] | Kd (mouse FcγRIII [3]) [nM] | Kd (mouse FcγRII [4]) [nM] | Binder
1 | 0.14 | 0.89 | 2370 | 261 | H237-MB626/MRAL-k0 (antibody, mouse IgG1, kappa, copies: 2 + 2) heavy: QVQLQESGPGLVKPSETLSLTCAVSGHSISHDHAWSWVRQPPGEGLEWIGFISYSGITNYNPSLQGRVTISRDNSKNTLYLQMNSLRAEDTAVYYCARSLARTTAMDYWGEGTLVTVSSAKTTPPSVYPLAPGSAAQTNSMVTLGCLVKGYFPEPVTVTWNSGSLSSGVHTFPAVLQSDLYTLSSSVTVPSSTWPSETVTCNVAHPASSTKVDKKIVPRDCGCKPCICETYEVELVFIFPPKPKDVLTITLTPKVTCVVVDISKDDPEVQFSWFVDDVEVHTAQTQPREEQFNSTFRSVSELPIMHQDWLNGKEFKCRVNSAAFPAPIEKTISKTKGRPKAPQVYTIPPPKEQMAKDKVSLTCMITDFFPEDITVEWQWNGQPAENYKNTQPIMDTDGSYFVYSKLNVQKSNWEAGNTFTCSVLHEGLHNHHTEKSLSHSPGK light: not shown
2 | 0.12 | 1.16 | 2800 | 200 | H237-MB647/MRAL-k0 (antibody, 'T2301' read as T230I; copies: 2 + 2) heavy: QVQLQESGPGLVKPSETLSLTCAVSGHSISHDHAWSWVRQPPGEGLEWIGFISYSGITNYNPSLQGRVTISRDNSKNTLYLQMNSLRAEDTAVYYCARSLARTTAMDYWGEGTLVTVSSAKTTPPSVYPLAPGSAAQTNSMVTLGCLVKGYFPEPVTVTWNSGSLSSGVHTFPAVLQSDLYTLSSSVTVPSSTWPSETVTCNVAHPASSTKVDKKIVPRDCGCKPCICIPAEVEYVFIFPPKPKDVLTITLTPKVTCVVVDISKDDPEVQFSWFVDDVEVHTAQTQPREEQFNSTFRSVSELPIMHQDWLNGKEFKCRVNSAAFPAPIEKTISKTKGRPKAPQVYTIPPPKEQMAKDKVSLTCMITDFFPEDITVEWQWNGQPAENYKNTQPIMDTDGSYFVYSKLNVQKSNWEAGNTFTCSVLHEGLHNHHTEKSLSHSPGK light: not shown
3 | 0.1 | 0.83 | 3380 | 280 | H237-MB638/MRAL-k0 (antibody, 'T2301' read as T230I; copies: 2 + 2) heavy: QVQLQESGPGLVKPSETLSLTCAVSGHSISHDHAWSWVRQPPGEGLEWIGFISYSGITNYNPSLQGRVTISRDNSKNTLYLQMNSLRAEDTAVYYCARSLARTTAMDYWGEGTLVTVSSAKTTPPSVYPLAPGSAAQTNSMVTLGCLVKGYFPEPVTVTWNSGSLSSGVHTFPAVLQSDLYTLSSSVTVPSSTWPSETVTCNVAHPASSTKVDKKIVPRDCGCKPCICIPAEVENVFIFPPKPKDVLTITLTPKVTCVVVDISKDDPEVQFSWFVDDVEVHTAQTQPREEQFNSTFRSVSELPIMHQDWLNGKEFKCRVNSAAFPAPIEKTISKTKGRPKAPQVYTIPPPKEQMAKDKVSLTCMITDFFPEDITVEWQWNGQPAENYKNTQPIMDTDGSYFVYSKLNVQKSNWEAGNTFTCSVLHEGLHNHHTEKSLSHSPGK light: not shown
4 | 0.16 | 1.83 | 2000 | 126 | H237-MB643/MRAL-k0 (antibody, mouse IgG1, kappa, copies: 2 + 2) heavy: QVQLQESGPGLVKPSETLSLTCAVSGHSISHDHAWSWVRQPPGEGLEWIGFISYSGITNYNPSLQGRVTISRDNSKNTLYLQMNSLRAEDTAVYYCARSLARTTAMDYWGEGTLVTVSSAKTTPPSVYPLAPGSAAQTNSMVTLGCLVKGYFPEPVTVTWNSGSLSSGVHTFPAVLQSDLYTLSSSVTVPSSTWPSETVTCNVAHPASSTKVDKKIVPRDCGCKPCICENYEVEYVFIFPPKPKDVLTITLTPKVTCVVVDISKDDPEVQFSWFVDDVEVHTAQTQPREEQFNSTFRSVSELPIMHQDWLNGKEFKCRVNSAAFPAPIEKTISKTKGRPKAPQVYTIPPPKEQMAKDKVSLTCMITDFFPEDITVEWQWNGQPAENYKNTQPIMDTDGSYFVYSKLNVQKSNWEAGNTFTCSVLHEGLHNHHTEKSLSHSPGK light: not shown
5 | 0.15 | 1.62 | 2100 | 143 | H237-MB641/MRAL-k0 (antibody, mouse IgG1, kappa, copies: 2 + 2) heavy: QVQLQESGPGLVKPSETLSLTCAVSGHSISHDHAWSWVRQPPGEGLEWIGFISYSGITNYNPSLQGRVTISRDNSKNTLYLQMNSLRAEDTAVYYCARSLARTTAMDYWGEGTLVTVSSAKTTPPSVYPLAPGSAAQTNSMVTLGCLVKGYFPEPVTVTWNSGSLSSGVHTFPAVLQSDLYTLSSSVTVPSSTWPSETVTCNVAHPASSTKVDKKIVPRDCGCKPCICEAYEVEYVFIFPPKPKDVLTITLTPKVTCVVVDISKDDPEVQFSWFVDDVEVHTAQTQPREEQFNSTFRSVSELPIMHQDWLNGKEFKCRVNSAAFPAPIEKTISKTKGRPKAPQVYTIPPPKEQMAKDKVSLTCMITDFFPEDITVEWQWNGQPAENYKNTQPIMDTDGSYFVYSKLNVQKSNWEAGNTFTCSVLHEGLHNHHTEKSLSHSPGK light: not shown
6 | 0.21 | 1.17 | 1550 | 197 | H237-MB640/MRAL-k0 (antibody, mouse IgG1, kappa, copies: 2 + 2) heavy: QVQLQESGPGLVKPSETLSLTCAVSGHSISHDHAWSWVRQPPGEGLEWIGFISYSGITNYNPSLQGRVTISRDNSKNTLYLQMNSLRAEDTAVYYCARSLARTTAMDYWGEGTLVTVSSAKTTPPSVYPLAPGSAAQTNSMVTLGCLVKGYFPEPVTVTWNSGSLSSGVHTFPAVLQSDLYTLSSSVTVPSSTWPSETVTCNVAHPASSTKVDKKIVPRDCGCKPCICQPNEVENVFIFPPKPKDVLTITLTPKVTCVVVDISKDDPEVQFSWFVDDVEVHTAQTQPREEQFNSTFRSVSELPIMHQDWLNGKEFKCRVNSAAFPAPIEKTISKTKGRPKAPQVYTIPPPKEQMAKDKVSLTCMITDFFPEDITVEWQWNGQPAENYKNTQPIMDTDGSYFVYSKLNVQKSNWEAGNTFTCSVLHEGLHNHHTEKSLSHSPGK light: not shown
7 | 0.07 | 0.56 | 4880 | 415 | H237-MB658/MRAL-k0 (antibody, mouse IgG1, kappa, copies: 2 + 2) heavy: QVQLQESGPGLVKPSETLSLTCAVSGHSISHDHAWSWVRQPPGEGLEWIGFISYSGITNYNPSLQGRVTISRDNSKNTLYLQMNSLRAEDTAVYYCARSLARTTAMDYWGEGTLVTVSSAKTTPPSVYPLAPGSAAQTNSMVTLGCLVKGYFPEPVTVTWNSGSLSSGVHTFPAVLQSDLYTLSSSVTVPSSTWPSETVTCNVAHPASSTKVDKKIVPRDCGCKPCICQPNEVEFVFIFPPKPKDVLTITLTPKVTCVVVDISKDDPEVQFSWFVDDVEVHTAQTQPREEQFNSTFRSVSELPIMHQDWLNGKEFKCRVNSAAFPAPIEKTISKTKGRPKAPQVYTIPPPKEQMAKDKVSLTCMITDFFPEDITVEWQWNGQPAENYKNTQPIMDTDGSYFVYSKLNVQKSNWEAGNTFTCSVLHEGLHNHHTEKSLSHSPGK light: not shown
8 | 0.1 | 1.65 | 5110 | 197 | H237-MB642/MRAL-k0 (antibody, mouse IgG1, kappa, copies: 2 + 2) heavy: QVQLQESGPGLVKPSETLSLTCAVSGHSISHDHAWSWVRQPPGEGLEWIGFISYSGITNYNPSLQGRVTISRDNSKNTLYLQMNSLRAEDTAVYYCARSLARTTAMDYWGEGTLVTVSSAKTTPPSVYPLAPGSAAQTNSMVTLGCLVKGYFPEPVTVTWNSGSLSSGVHTFPAVLQSDLYTLSSSVTVPSSTWPSETVTCNVAHPASSTKVDKKIVPRDCGCKPCICEDYEVEYVFIFPPKPKDVLTITLTPKVTCVVVDISKDDPEVQFSWFVDDVEVHTAQTQPREEQFNSTFRSVSELPIMHQDWLNGKEFKCRVNSAAFPAPIEKTISKTKGRPKAPQVYTIPPPKEQMAKDKVSLTCMITDFFPEDITVEWQWNGQPAENYKNTQPIMDTDGSYFVYSKLNVQKSNWEAGNTFTCSVLHEGLHNHHTEKSLSHSPGK light: not shown
